# In paper PMC5072174:
# Target: fluorescein-conjugated N-terminal histone H3 peptide with trimethylation at the K9 position (UniProt P68431)
# Assay: fluorescence polarisation
row,Kd [µM],Substance
1,> 100,"Mpp8 chromodomain with F59 replaced by 3,4,5-trifluorophenylalanine (from UniProt Q99549 55-116) (domain or fragment)"
2,12,"Mpp8 chromodomain with F59 replaced by 3,5-difluorophenylalanine (from UniProt Q99549 55-116) (domain or fragment)"
3,> 200,Mpp8 chromodomain with F59 replaced by pentafluoro-phenylalanine (from UniProt Q99549 55-116) (domain or fragment)
